test system: Escherichia coli TOP10; assay: shrunken log2 fold change of peptide-encoding DNA abundance (4.5 h post-induction vs induction); higher = less antimicrobial activity (less host growth inhibition); conditions: time post-induction: 4.5 h; library: site-saturation at positions 5, 18, 19, 20
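Also: peptides expressed intracellularly from a pBAD plasmid library in pooled LB shake-flask culture, induced with 0.3% L-arabinose, DNA abundance read by NGS, three biological replicates, DESeq2 with apeglm shrinkage.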

Sequence	shrunken log2 fold change
RRIRTRPPRLPRPRPRPDGRPRP	-0.0138
RRIRSRPPRLPRPRPRPAWDPRP	0.281
RRIRKRPPRLPRPRPRPWVAPRP	0.282
RRIRLRPPRLPRPRPRPWMHPRP	0.0873
RRIRYRPPRLPRPRPRPATRPRP	0.098
RRIRTRPPRLPRPRPRPCPVPRP	-0.175
RRIRGRPPRLPRPRPRPQKEPRP	0.0631
RRIRDRPPRLPRPRPRPRAPPRP	0.359
RRIRYRPPRLPRPRPRPSGVPRP	-0.0951
RRIRNRPPRLPRPRPRPEPVPRP	-0.0258
RRIRNRPPRLPRPRPRPQSPPRP	-0.0298
RRIRSRPPRLPRPRPRPYWGPRP	-0.0576
RRIRDRPPRLPRPRPRPWPQPRP	-0.121
RRIRMRPPRLPRPRPRPVFNPRP	-0.0958
RRIRSRPPRLPRPRPRPLQMPRP	0.24
RRIRKRPPRLPRPRPRPEWTPRP	0.0364
RRIRHRPPRLPRPRPRPRSGPRP	-0.0415
RRIRWRPPRLPRPRPRPEDLPRP	-0.0249
RRIRGRPPRLPRPRPRPCCPPRP	0.0328
RRIRVRPPRLPRPRPRPCTVPRP	-0.14
RRIRLRPPRLPRPRPRPRKCPRP	0.309
RRIRNRPPRLPRPRPRPVQCPRP	-0.0226
RRIRYRPPRLPRPRPRPVKIPRP	-0.0138
RRIRKRPPRLPRPRPRPCMNPRP	-0.279
RRIRARPPRLPRPRPRPPRAPRP	0.932

Sequence	shrunken log2 fold change
RRIRQRPPRLPRPRPRPHPPPRP	0.667
RRIRGRPPRLPRPRPRPKAHPRP	0.625
RRIRFRPPRLPRPRPRPPVQPRP	0.3
RRIRVRPPRLPRPRPRPAAEPRP	0.109
RRIRMRPPRLPRPRPRPSTFPRP	0.147
RRIRSRPPRLPRPRPRPVKDPRP	-0.315
RRIRARPPRLPRPRPRPLGTPRP	0.407
RRIRDRPPRLPRPRPRPEKHPRP	0.377
RRIRMRPPRLPRPRPRPIGRPRP	-0.00776
RRIRWRPPRLPRPRPRPFMAPRP	-0.121
RRIRERPPRLPRPRPRPCVYPRP	-0.33
RRIRCRPPRLPRPRPRPCQNPRP	-0.0888
RRIRARPPRLPRPRPRPFGHPRP	0.132
RRIRERPPRLPRPRPRPGGWPRP	0.492
RRIRQRPPRLPRPRPRPDITPRP	-0.00487
RRIRYRPPRLPRPRPRPHHLPRP	-0.329
RRIRNRPPRLPRPRPRPQLDPRP	0.112
RRIRKRPPRLPRPRPRPSHTPRP	-0.0409
RRIRKRPPRLPRPRPRPLCKPRP	0.0465
RRIRFRPPRLPRPRPRPREDPRP	0.0505
RRIRMRPPRLPRPRPRPKTQPRP	0.971
RRIRWRPPRLPRPRPRPHAWPRP	0.0328
RRIRLRPPRLPRPRPRPVDGPRP	0.0489
RRIRMRPPRLPRPRPRPVPDPRP	0.239
RRIRYRPPRLPRPRPRPEYKPRP	-0.856

Sequence	shrunken log2 fold change
RRIRVRPPRLPRPRPRPELLPRP	0.0724
RRIRWRPPRLPRPRPRPMIHPRP	-0.0666
RRIRYRPPRLPRPRPRPPGRPRP	0.643
RRIRHRPPRLPRPRPRPGVKPRP	-0.0148
RRIRQRPPRLPRPRPRPSPEPRP	-0.0086
RRIRGRPPRLPRPRPRPHTIPRP	0.151
RRIRQRPPRLPRPRPRPARAPRP	1.22
RRIRRRPPRLPRPRPRPKYIPRP	-0.135
RRIRDRPPRLPRPRPRPLLNPRP	0.124
RRIRSRPPRLPRPRPRPVPKPRP	0.232
RRIRDRPPRLPRPRPRPFQWPRP	-0.156
RRIRERPPRLPRPRPRPIHMPRP	-0.0835
RRIRIRPPRLPRPRPRPFLSPRP	-0.282
RRIRARPPRLPRPRPRPIQIPRP	-0.103
RRIRCRPPRLPRPRPRPFHYPRP	-2.22e-05
RRIRQRPPRLPRPRPRPANGPRP	0.184
RRIRCRPPRLPRPRPRPKEVPRP	-0.289
RRIRQRPPRLPRPRPRPRRQPRP	0.197
RRIRGRPPRLPRPRPRPILMPRP	-0.05
RRIRYRPPRLPRPRPRPYPPPRP	-0.673
RRIRGRPPRLPRPRPRPCDYPRP	0.132
RRIRVRPPRLPRPRPRPACNPRP	-0.0138
RRIRARPPRLPRPRPRPASRPRP	0.44
RRIRIRPPRLPRPRPRPYFLPRP	-0.921
RRIRNRPPRLPRPRPRPGNTPRP	-0.896

Sequence	shrunken log2 fold change
RRIRTRPPRLPRPRPRPMFTPRP	-0.253
RRIRIRPPRLPRPRPRPQIIPRP	-0.213
RRIRERPPRLPRPRPRPLWLPRP	-0.203
RRIRDRPPRLPRPRPRPRQIPRP	-0.233
RRIRYRPPRLPRPRPRPETKPRP	-0.485
RRIRDRPPRLPRPRPRPYEGPRP	0.00106
RRIRYRPPRLPRPRPRPFHPPRP	-0.146
RRIRQRPPRLPRPRPRPQHPPRP	-0.131
RRIRDRPPRLPRPRPRPLHWPRP	-0.124
RRIRFRPPRLPRPRPRPHPFPRP	-0.105
RRIRARPPRLPRPRPRPERIPRP	0.155
RRIRWRPPRLPRPRPRPTIHPRP	0.13
RRIRWRPPRLPRPRPRPDIIPRP	0.0562
RRIRHRPPRLPRPRPRPHWWPRP	0.0507
RRIRTRPPRLPRPRPRPTPMPRP	0.276
RRIRPRPPRLPRPRPRPQWCPRP	-0.0525
RRIRIRPPRLPRPRPRPWGSPRP	-0.488
RRIRFRPPRLPRPRPRPGEEPRP	0.0793
RRIRSRPPRLPRPRPRPYVHPRP	-0.175
RRIRIRPPRLPRPRPRPFKFPRP	-0.702
RRIRTRPPRLPRPRPRPDTEPRP	-0.072
RRIRTRPPRLPRPRPRPWMKPRP	0.0159
RRIRHRPPRLPRPRPRPHDPPRP	-0.613
RRIRSRPPRLPRPRPRPMANPRP	-0.397
RRIRCRPPRLPRPRPRPMWCPRP	0.148

Sequence	shrunken log2 fold change
RRIRMRPPRLPRPRPRPTKWPRP	0.445
RRIRRRPPRLPRPRPRPNELPRP	0.457
RRIRCRPPRLPRPRPRPGDNPRP	-0.125
RRIRPRPPRLPRPRPRPSGKPRP	-0.247
RRIRQRPPRLPRPRPRPTSGPRP	-0.0104
RRIRHRPPRLPRPRPRPMYCPRP	-0.125
RRIRLRPPRLPRPRPRPMMEPRP	0.195
RRIRDRPPRLPRPRPRPYMSPRP	-0.00753
RRIRYRPPRLPRPRPRPRRCPRP	0.254
RRIRLRPPRLPRPRPRPWHAPRP	-0.194
RRIRLRPPRLPRPRPRPPFAPRP	0.543
RRIRPRPPRLPRPRPRPVETPRP	-0.158
RRIRTRPPRLPRPRPRPAGNPRP	0.00723
RRIRSRPPRLPRPRPRPYDIPRP	-0.0295
RRIRGRPPRLPRPRPRPPFWPRP	1.09
RRIRTRPPRLPRPRPRPRVLPRP	0.242
RRIRERPPRLPRPRPRPLMIPRP	-0.348
RRIRNRPPRLPRPRPRPNDKPRP	-0.549
RRIRMRPPRLPRPRPRPKTYPRP	-0.0099
RRIRMRPPRLPRPRPRPGMPPRP	0.522
RRIRPRPPRLPRPRPRPWWTPRP	-0.311
RRIRQRPPRLPRPRPRPYQTPRP	-0.421
RRIRPRPPRLPRPRPRPDEWPRP	0.0186
RRIRHRPPRLPRPRPRPSMVPRP	-0.372
RRIRARPPRLPRPRPRPIWLPRP	0.221

Sequence	shrunken log2 fold change
RRIRHRPPRLPRPRPRPVDQPRP	0.00586
RRIRLRPPRLPRPRPRPISEPRP	0.00295
RRIRRRPPRLPRPRPRPLNGPRP	0.112
RRIRIRPPRLPRPRPRPMICPRP	-0.224
RRIRSRPPRLPRPRPRPCIQPRP	-0.175
RRIRARPPRLPRPRPRPFNKPRP	-0.0214
RRIRCRPPRLPRPRPRPLNYPRP	0.101
RRIRVRPPRLPRPRPRPLNEPRP	-0.0647
RRIRDRPPRLPRPRPRPLIEPRP	0.573
RRIRHRPPRLPRPRPRPWGMPRP	-0.0998
RRIRMRPPRLPRPRPRPKPWPRP	1.12
RRIRKRPPRLPRPRPRPQDIPRP	-0.116
RRIRDRPPRLPRPRPRPTRNPRP	0.174
RRIRIRPPRLPRPRPRPMDWPRP	0.0118
RRIRARPPRLPRPRPRPQEHPRP	0.515
RRIRMRPPRLPRPRPRPGPFPRP	0.222
RRIRLRPPRLPRPRPRPCESPRP	0.0102
RRIRHRPPRLPRPRPRPGMDPRP	-0.0518
RRIRDRPPRLPRPRPRPFKKPRP	-0.145
RRIRRRPPRLPRPRPRPGNNPRP	-0.365
RRIRRRPPRLPRPRPRPWELPRP	0.0522
RRIRVRPPRLPRPRPRPSAAPRP	0.298
RRIRRRPPRLPRPRPRPNHSPRP	-0.321
RRIRPRPPRLPRPRPRPYVYPRP	-0.636
RRIRVRPPRLPRPRPRPPWHPRP	0.164

Reference: the supplement of paper PMC9112550, “Optimization of the antimicrobial peptide Bac7 by deep mutational scanning” (BMC Biology, 2022)
